Source: patent US20130123460A1, “PEPTIDE FOR IMPROVING BIOSTABILITY OF BIOACTIVE SUBSTANCE, AND BIOACTIVE SUBSTANCE HAVING IMPROVED BIOSTABILITY” (priority 2010, published 2013)

target: endogenous GLP-1 receptor of MIN 6 cells (mouse) (UniProt O35659); test: cell-based or functional assay

In order of falling Insulin Secretion Capacity of GLP-1 Peptide Complex in MIN 6 Cells (% of control), at 1000 pM:
1. [Ser8]-GLP-1(7-35)-GAm(28-44) (peptide)  139 % of control
2. [Ser8]-GLP-1(7-35)-GAm(38-42)-NH2 (peptide)  125 % of control
3. [Ser8]-GLP-1(7-35)-GAm(38-44)-NH2 (peptide)  120 % of control
4. [Ser8]-GLP-1(7-35)-GAm(33-44)-NH2 (peptide)  118 % of control
5. [Ser8]-GLP-1(7-35)-GAm(35-44)-NH2 (peptide)  115 % of control
6. [Ser8]-GLP-1(7-35)-GAm(32-44)-NH2 (peptide)  109 % of control
7. [Ser8]-GLP-1(7-35)-GAm(27-46)-NH2 (peptide)  106 % of control
8. [Ser8]-GLP-1(7-35)-GAm(28-42)-NH2 (peptide)  105 % of control
9. [Ser8]-GLP-1(7-35)-GAm(28-44)-NH2 (peptide)  105 % of control
10. [Ser8]-GLP-1(7-35)-GAm(25-46)-NH2 (peptide)  104 % of control
11. [Ser8]-GLP-1(7-35)-GAm(22-46)-NH2 (peptide)  100 % of control
12. [Ser8]-GLP-1(7-35)-GAm(37-44) (peptide)  98 % of control
13. [Ser8]-GLP-1(7-35)-GAm(33-44) (peptide)  89 % of control
14. [Ser8]-GLP-1(7-35)-GAm(30-42)-NH2 (peptide)  85 % of control
15. [Ser8]-GLP-1(7-35)-GAm(31-44)-NH2 (peptide)  83 % of control
16. [Ser8]-GLP-1(7-35)-GAm(37-44)-NH2 (peptide)  82 % of control
17. [Ser8]-GLP-1(7-35)-GAm(21-46)-NH2 (peptide)  45 % of control
18. [Ser8]-GLP-1(7-35)-GAm(17-46)-NH2 (peptide)  39 % of control
19. [Ser8]-GLP-1(7-35)-GAm(1-46)-NH2 (peptide)  18 % of control

“[Ser8]-GLP-1(7-35)-GAm(1-46)-NH2 (peptide)” and “[Ser8]-GLP-1(7-35)-GAm(17-46)-NH2 (peptide)” cannot be ordered by Insulin Secretion Capacity of GLP-1 Peptide Complex in MIN 6 Cells (EC50 value): greater than 1000 pM for the first, greater than 1000 pM for the second.

“[Ser8]-GLP-1(7-35)-GAm(38-42)-NH2 (peptide)” showed an Insulin Secretion Capacity of GLP-1 Peptide Complex in MIN 6 Cells (EC50 value) of 500 pM.

target: endogenous SSTR 5 of MIN 6 cells (mouse) (UniProt O08858); test: cell-based or functional assay
Sequence (O08858 whole entry): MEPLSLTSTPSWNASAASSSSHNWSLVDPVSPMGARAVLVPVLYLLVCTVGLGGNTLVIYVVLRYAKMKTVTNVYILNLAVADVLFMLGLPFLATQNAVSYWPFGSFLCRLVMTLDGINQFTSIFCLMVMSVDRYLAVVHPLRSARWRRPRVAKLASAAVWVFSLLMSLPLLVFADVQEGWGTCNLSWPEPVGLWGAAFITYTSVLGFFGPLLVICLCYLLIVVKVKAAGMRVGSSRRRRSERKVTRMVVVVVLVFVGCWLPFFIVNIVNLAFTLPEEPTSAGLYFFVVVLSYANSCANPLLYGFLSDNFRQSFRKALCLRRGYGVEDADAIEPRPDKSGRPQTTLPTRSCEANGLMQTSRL

SRIF(1-14)-NH2 (peptide) gave a Suppressibility of Insulin Secretion in MIN 6 Cells, Suppression rate of insulin secretion (%) relative to native SRIF of 100%.

target: endogenous VIP receptor of SUP-T1 cells (human); test: cell-based or functional assay

In order of rising cAMP Productivity in SUP-T1 Cells, Activity Intensity (%) relative to native VIP:
1. VIP(1-28)-GAm(28-44)-NH2 (peptide)  67%
2. VIP(1-28)-GAm(37-44)-NH2 (peptide)  81%
3. VIP(1-28)-GAm(32-44)-NH2 (peptide)  85%
